# Assay: soluble on expression in E. coli; label from the status in PepcDB or PDB records
row,Sequence,soluble on expression in E. coli
1,MSLDVRQSIHSAHAKTLDTQGLRNEFLVEKVFVADEYTMVYSHIDRIIVGGIMPITKTVSVGGEVGKQLGVSYFLERRELGVINIGGAGTITVDGQCYEIGHRDALYVGKGAKEVVFASIDTGTPAKFYYNCAPAHTTYPTKKVTPDEVSPVTLGDNLTSNRRTINKYFVPDVLETCQLSMGLTELAPGNLWNTMPCHTHERRMEVYFYFNMDDDACVFHMMGQPQETRHIVMHNEQAVISPSWSIHSGVGTKAYTFIWGMVGENQVFDDMDHVAVKDLREGHHHHHH,soluble
2,DTTGSTPAPIDENGTVLALLPEFEHNPNAMFVLWKDHTSVAKADRINELAHSGKFTDYTRYVGGVYSSEWFWAKAAWVSEQDEQVAKRAFSWVELCDWIPAILADTQHPQKLRRGICAAGHKAMWHESWGGLPEQAFLSAISPTLDGIRDRMFTEVFTSDQAAGYLSKAWAIKLGLPEGIAIAIGEFDCHMGAVGAGAGANDLVKVIGTSTCDILMVESQNVGDRTIHGICGQVEGSAMPELLALEAGQSAFGDMYAWFKNVLMWPLQAYAEHNPDFALTAEEIASELLPMLSQAAEQQGIDQYTPVAMDWLNGRRTPYANQRLKGAICDLNLGSSSPAIFSALVESTAHGAKAIVDCFIEQDVTVERVIAIGGIAQKSPYVMQMCADVIGRDIIVVESDQ,not soluble
3,MEFPFDVDALFPERITVLDQHLRPPARRPGTTTPARVDLQQQIMTIIDELGKASAKAQNLSAPITSASRMQSNRHVVYILKDSSARPAGKGAIIGFIKVGYKKLFVLDDREAHNEVEPLCILDFYIHESVQRHGHGRELFQYMLQKERVEPHQLAIDRPSQKLLKFLNKHYNLETTVPQVNNFVIFEGFFAHQHPPARKLPPKRAEGDIKPYSSSDREFLKVAVEPPWPLNRAPRRATPPAHPPPRSSSLGNSPERGPLRPFVPEQELLRSLRLCPPHPTARLLLAADPGGSPAQRRRTR,not soluble
4,MSRVERLPNGLVVALEERDFPGVAFQLLVPAGAVNDPEGMEGAAALLEGWLWKGAGDLDARALAQALDALGVRRSSGAGLEYTAFAAAFLPEVLDEVFRLYALLLTRPRLPEEGLEAVGHVALQALLSLEDQPARKLLSELRRKVFRSPHGREPLGREEGLKGARAEALKADYRRRYTPKGAILAVAGGVSWERLRAALEPFLAWEGEEALYPAPELSEPHRFVLRRPTAQVQIGLAYPDVGPEDPGFYAARLALEVLSGGMSSRLFTEVREKRGLVYAVSAFPAGVKGQGLLMAYAGTTKERAGETLEVLRAEVERLAEGVTEEELFRAKVGLKTALVMADESIRSRAASMARDLYMLGRVRSLSEIEAAIEGTSLEAVNAFLRAHPYRDPWVGLLGEVEDV,soluble
5,MGSDKIHHHHHHMSATKIDAVYLDADVTAYKGNPFIEALPPLQESVNSAAALRSTSLFDASDLQKPRVVRAHSICRITNDFFQPLGSHMLLSERVSLMIRGGYVGRNPKTGDLQRHLQNGYERVQSGDLSSFRFEEAKSTAQSMLLIGCSGSGKTTSLARILDTYPQVIYHPTMNFEQVVYLKVDCSHNGSLKEICLNFFRALDKALGSNYEKKYGLKRNGIETMLALMAQIANAHAVGLLVIDEIQHLSRAKSGGPEAMLNFFVTMVNTIGVPVMLIGTPKAREIFEIDLRSARRGSGLGAIFWEPMKQGPNGKRNPEWAAFTDNLWKQQLLQSKDLVLTDDLRDLWYDLSQGVMDTVVKLFVLSQLRALALGKERLTPGLMKQVYKDELKPVHPMLEALRSGVPEKIAQYSDLMLPEMDKRLIQLQRDIAGMKVETPEELALKQLATDDERRIYLMLKDDYDSSLLVATVRKAFAENPKLTRPQLLPVILNWLSDTDNPVKPEQPKTQVKNTKPDQWDTLDWDDLRYISSQQQSAAAMHSALGTKGLLFDLRRRMT,not soluble
6,MLFSLKYLGMTLVEQPKGEELSAAAIKRIVATAKASGKKLQKVTLKVSPRGIILTDNLTNQLIENVSIYRISYCTADKMHDKVFAYIAQSQHNQSLECHAFLCTKRKMAQAVTLTVAQAFKVAFEFWQVSKEEKEKRDKASQEGGDVLGARQDCTPPLKSLVATGNLLDLEETAKAPLSTVSANTTNMDEVPRPQALSGSSVVWELDDGLDEAFSRLAQSRTNPQVLDTGLTAQDMHYAQCLSPVDWDKPDSSGTEQDDLFSF,soluble
7,MGHHHHHHSHGSHVKVKSFEKERQTEKRVLETELVDHVLQKLRTKVTDERNGREASDNLAVQNLKGSFSNASGLFEIHGATVVPIVSVLAPEKLSASTRRRYETQVQTRLQTSLANLHQKSSEIEILAVDLPKETILQFLSLEWDADEQAFNTTVKQLLSRLPKQRYLKLVCDEIYNIKVEKKVSVLFLYSYRDDYYRILF,not soluble
8,MEYPMSYTFRATFPALFLSLMLPCALPALAADPAPAKDAAAQAPVERAPLLSRSQEDAIALERQLPREDQQQLQAGDESFLALWKPANTDAPQGAVIILPGDAESPDWPDTVGPLRRKFPDVGWSSLSITLPDAQDNTLLPREPDAAAGDANAAKPEETPKDAAAKAPDPAAEAEALAAVATAKAAADEERNKAQAELIFARIESAISFAQQNKARNIVLLGHSSGAYWAARFLNERPSPAVQKLVMVAAREPVDAAPSLLAMVPGLKIKTADFIYKNPEDQAAKARLQASKRAKGPGFTQIGLINIVGNEETEQEQMFRRIRGWVEAKEEK,not soluble
9,MSLGYGIRLLVWGEFACFTRPEMKVERVSYDVMTPSAARGILESIHWKPSIVWKIDKIHVLNEIRFDNVRRNEVGSKIPTGNVRKAMKGEPTLLCQYASEDRQQRATLLLRNVAYVIVAHFEMTSKAGPQDSPEKHYAIFSRRARQGQCFQQPYFGCREFPAKFRLIEEDEPTPHSLHKGDKDLGWMLLDIDHEDGMNPRFFRATMKDGLIEVPPMERGLTVLEGHHHHHH,soluble
10,MGHHHHHHSHMVGLDIDSRLIHSARQNIRHYLSEELRLPPQTLEGDPGAEGEEGTTTVRKRSCFPASLTASRGPIAAPQVPLDGADTSVFPNNVVFVTGNYVLDRDDLVEAQTPEYDVVLCLSLTKWVHLNWGDEGLKRMFRRIYRHLRPGGILVLEPQPWSSYGKRKTLTETIYKNYYRIQLKPEQFSSYLTSPDVGFSSYELVATPHNTSKGFQRPVYLFHKARSPSH,not soluble
11,PHLAFFAFAGALGFAGWRQSKKPVQDTQIEQVEALSQAMQEEDTPLTWDDIPHVHTLSLALGYRLVHLVNKDQGAPLSQRIRGVRRNLSEQVGFLLPEVRIRDNLSLKPNQYTISLNGEVIEQGFIEPERLMAIAVGDTYGEIDGILGSDPAYQLPAVWIEHQDKAKALNMGYQVVDDGTVIATHISKIMKTNLAELFTHDDVEAMTQRLTQQAPKLAEALAAALNPAQQLKVYRQLLLDQVPLKDIRTIANTMLESSENTKDPILLAADVRCALKRTLVNLIAGQKPELNVYALSDELEQMLLTSLQQAQASGTVVLDSFPIEPNILGQFQQNLPLIRQQLKQQGLPPILLVMPQLRPLLARYARTFTQGLAVLSYNEIPENKQINVVGNLG,not soluble
12,MEHSLPPYRLRRSPRAKYLRLLIRPDGIEVVVPTGLSDATVLAFVRQHGGWAQARLEELLARLAKLRQGQAERFPAEGGSVPLEGRETPLFIEETGGSRIRVSLEDQGLRLILPRTCGADRDRYVRDALFGWMKRRLPGRVTELIERHAPLHGLYPRQLRIKSMRTRWGSCGPANDINLNWLLGLAPLSVLEYVVVHELCHIRHRNHSRDFWELVAAHLPDWRQERQWLKAHGGGLIQRFDPAFRLEHHHHHH,soluble
13,MGASGRICTVVPVEDAGEAAMLALSSPTGCVELRLDFYPGDPGEALELLATRLHSPARVVVTLRSAGHGGLDRRARGERRAVLARLEDLAPEGWLVDYEVEDLHASSGCSGCIASSHPTTPPTPRRALEEAAVAERLGASAYKLVYPGVEPWEQAAAARLVAEAGGFATSFTLGPGTLASRLTALALGAPLVFGSHPRAPLDGVPQSSEIMELYLRMGLGES,not soluble
14,MPNMGIEKLYVSQQLTDSAAGMTFTKPQYYKYVQELSLKPKVNSASAYAENRKVDQDTQFDSCDVSINLFQMTSSQRAFMLGQSLAGGGGAIGALNDKAPWITLLYKAPIKVDDTIYYRYGVIYKTQFQPPDDDYKTTEGKPDFSQVPKISGSAQPTEWSFKDGKLEKHPWEWHVDTCDPNCPENIDDTWFNSVSIPSLVTYGSLSLSASSPKDGATGISLDTKPSLTFNNPIMNATSILLYNVSDGATVNTTTSSDSSGKIITITPSTNLVANKNYVLVVQDVTDLYGQTLDTQLIRFTTATAASLEHHHHHH,soluble
15,MGTVMDVLKGDNRFSMLVAAIQSAGLTETLNREGVYTVFAPTNEAFRALPPRERSRLLGDAKELANILKYHIGDEILVSGGIGALVRLKSLQGDKLEVSLKNNVVSVNKEPVAEPDIMATNGVVHVITNVLQP,soluble
16,EQPFYRTKVKLKKEIVTLGVPGVDPNKQVGQYVEAKDWNALISDPEVLLIDTRNDYEVAIGTFEGAVDPKTRSFREFPEYIKAHYDPARHKKVAMFCTGGIRCEKASSYMLGAGFEEVFHLKGGILKYLEEVPQEQSLWRGDCFVFDNRVTVRHDLSEGEYDQCHA,not soluble
17,MIRGNAGIMTNYRLSNLFSLQAELNFTTHGKNYCIDGLPHRNRYGYEVTDQTLINIRLHYLELPLLAKFTLFSSQKVTFDMAAGPFIGYKLAARQKTEGGDYQNTTSDYTRLNAGYQISFGFSVMKKRLFFEMRGSRGFVPINTADATKITTMQGGVAIGYYFFSGKKK,not soluble
18,ATRVQAAQKEPASDVSDKLEQIREEIAKDPQSVFKYITISPVKKDDAIIGYRVSPGRDAALFNDVGLEPGDIAVQLNGIDLSDPSSSVQLMQVMSDPQELNLTVERDGQQYDIYIQL,not soluble
19,MGSDKIHHHHHHMFCKVMKIGISCHHTYGGSGAVATELGKALAMKGHTVHFFSQAAPFRLGLYSRNIYCHEIEAMNYPLFETPYHSLALASKIAEVAFYEKLDVVHAHYAIPHAISAMLARQMLEEKCPAAECFRIVTTLHGTDITIVGADRSMSDAVRLAINKSDGVTAVSGYLRDETIRMFTPRKKIEVIHNFVDTAVFKRLPGRRDLLGLDGGKVVIHISNFRPVKRIMDVLAVFESIRREIPATLLLVGDGPDRSEAETWVRNYGIGDRVRFLGKLDDIVPLLSIADLMLMPSNVESFGLAALEAMACGVPVVVTDAGGFPEFVRQGVDGFRHPHGDIEGMSRSALSILRDDEVWQRFSGAAANQAGRFKTALKVKEYEAFYRRLIDEARERKAQ,not soluble
20,MKKIATATIATAGFATIAIASGNQAHASEQDNYGYNPNDPTSYSYTYTIDAQGNYHYTWKGNWHPSQLNQDNGYYSYYYYNGYNNYNYNNYNNGYSYNNYSRYNNYSNNNQSYNYNNYNSYNTNSYRTGGLGASYSTSSNNVQVTTTMAPSSNGRSISSGYTSGRNLYTSGQCTYYVFDRVGGKIGSTWGNASNWANAAARAGYTVNNTPKAGAIMQTTQGAYGHVAYVESVNSNGSVRVSEMNYGYGPGVVTSRTISASQAAGYNFIHLEHHHHHH,not soluble
21,SARRISSQGKVTISVDEYSSNPTQAFTHYNINQSRFQPPHVHMVEPLPYDAPKSVGHTRFVCVSDTHSRTDGIQMPFGDVLLHTGDFTELGLPSEVKKFNDWLGGLPYEYKVVIAGNHELTFDKDFMAELIKQDYYRFPSVSKLRSEDFDDVQSLLTNCVYLQDSEVTIKGFRIYGAPWTLWFNGWGFNLPRGQSLLDKWNQIPEDVDILMTHGPPLGFRDWLPKELQRVGCVELLNTVQKRVRPKLHAYGGIHEGYGIMTDGYTTFINSSTCTVSFQPTNPPIIFDLPNPGNS,soluble

# — the DeepSol protein solubility set
